Results on one substance are retold here after patent US20200317769A1.

The experiment has as its target soluble cynomolgus monkey TNF-alpha (cynomolgus monkey) (UniProt P79337). Nature of the experiment: cell-based or functional assay.

soluble cynomolgus monkey TNF-alpha (cynomolgus monkey), sequence (P79337 77-233 limits assumed): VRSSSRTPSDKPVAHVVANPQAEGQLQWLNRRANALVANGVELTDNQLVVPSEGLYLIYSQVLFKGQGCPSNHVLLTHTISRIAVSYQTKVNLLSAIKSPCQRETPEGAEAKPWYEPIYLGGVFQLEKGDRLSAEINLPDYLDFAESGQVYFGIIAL

Consider adalimumab (antibody), for which the Inhibition of cynomolgus TNF-induced L929 cell cytotoxicity EC50 was found to be 0.04 nM.
